Laboratory results: patent publication US6376240

Target: recombinant His6-RFLAT-1 (C-terminal portion of RFLAT-1, amino acids 59-288)
Sequence (chain, as listed by the source): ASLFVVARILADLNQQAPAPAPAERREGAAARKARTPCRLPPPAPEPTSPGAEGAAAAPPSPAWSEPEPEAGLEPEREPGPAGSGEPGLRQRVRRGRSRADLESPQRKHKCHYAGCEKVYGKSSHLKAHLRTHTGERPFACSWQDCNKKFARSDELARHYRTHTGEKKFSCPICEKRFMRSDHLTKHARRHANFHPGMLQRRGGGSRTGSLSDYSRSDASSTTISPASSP

B1: ERK1 kinase (protein)
chain: MAAAAAQGGGGGEPRRTEGVGPGVPGEVEMVKGQPFDVGPRYTQLQYIGEGAYGMVSSAYDHVRKTRVAIKKISPFEHQTYCQRTLREIQILLRFRHENVIGIRDILRASTLEAMRDVYIVQDLMETDLYKLLKSQQLSNDHICYFLYQILRGLKYIHSANVLHRDLKPSNLLINTTCDLKICDFGLARIADPEHDHTGFLTEYVATRWYRAPEIMLNSKGYTKSIDIWSVGCILAEMLSNRPIFPGKHYLDQLNHILGILGSPSQEDLNCIINMKARNYLQSLPSKTKVAWAKLFPKSDSKALDLLDRMLTFNPNKRITVEEALAHPYLEQYYDPTDEPVAEEPFTFAMELDDLPKERLKELIFQETARFQPGVLEAP
  phosphorylation of recombinant RFLAT-1 by kinase (control): As controls, ERK1 kinase does not
